System: K4 kissing-loop RNA reporter
Experiment: apparent KD of K4 kissing-loop reporter; higher = weaker reporter binding
Conditions: Eterna round: R107
Protocol: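 RNA-MaP round R107: designed RNA switches with theophylline, tryptophan, arginine or FMN aptamers are transcribed on-chip within common flanks. They are titrated with a labelled K4 kissing-loop RNA reporter in RNA-MaP buffer (100 mM Tris pH 7.5, 80 mM KCl, 4 mM MgCl2), without ligand or with the indicated ligand. Median apparent KD per design.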

[1] = input ligand: theophylline 20 uM
[2] = input ligand: tryptophan 2.4 mM
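Also: bound reporter read as fluorescence of individual clusters on recovered sequencing chips by microscopy, with normalized cluster intensities fitted with a binding model.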

## AGUGUUAGGUUAGAUACCAGCCGUCUAUGGAUAAUCCUCAGACCGCCAGUGAUGUUGGCAGGCCCUUGGCAGCUAACAGAACAGA [Reinonor]
Input ligand: FMN 200 uM
  apparent KD of K4 kissing-loop reporter: 202 nM
Input ligand: arginine 13.2 mM
  apparent KD of K4 kissing-loop reporter: 218 nM
Input ligand: none
  apparent KD of K4 kissing-loop reporter: 240 nM
[1]
  apparent KD of K4 kissing-loop reporter: 164 nM
[2]
  apparent KD of K4 kissing-loop reporter: 213 nM

## GAUUCAGUGAUGUUGGAAGGCGAGCGGGAUACCAGCCGAGACUCAGGCCCUUGGCAGCCCACAUAUCCCAGGUAGAUAGUCGCUC [Same State - Theophylline A (Freestyle 10)]
Input ligand: FMN 200 uM
  apparent KD of K4 kissing-loop reporter: 343 nM
Input ligand: arginine 13.2 mM
  apparent KD of K4 kissing-loop reporter: 266 nM
Input ligand: none
  apparent KD of K4 kissing-loop reporter: 325 nM
[1]
  apparent KD of K4 kissing-loop reporter: 383 nM
[2]
  apparent KD of K4 kissing-loop reporter: 265 nM

## AAGCAGUCACGCGAAGCCAUCGAAGAUGGCCGAGGACCGGUACGGCCGCCACUCGGAGUGAUGUUCCGAAGACUGCAAAAUAAAA
Input ligand: FMN 200 uM
  apparent KD of K4 kissing-loop reporter: 370 nM
Input ligand: arginine 13.2 mM
  apparent KD of K4 kissing-loop reporter: 386 nM
Input ligand: none
  apparent KD of K4 kissing-loop reporter: 417 nM
[1]
  apparent KD of K4 kissing-loop reporter: 468 nM
[2]
  apparent KD of K4 kissing-loop reporter: 252 nM

## GGACCGCCAGUGAUGUUGGAGAUAAACUCCAAGGAUAUGACGAAAGUCAGAAGGUGGUAAUAAGACGUCAAAGACGUCAGGUCCA [FmnA 21 #SwitchBubble #K4Early]
Input ligand: FMN 200 uM
  apparent KD of K4 kissing-loop reporter: 970 nM
Input ligand: arginine 13.2 mM
  apparent KD of K4 kissing-loop reporter: 206 nM
Input ligand: none
  apparent KD of K4 kissing-loop reporter: 361 nM
[1]
  apparent KD of K4 kissing-loop reporter: 301 nM
[2]
  apparent KD of K4 kissing-loop reporter: 266 nM

## AAAAUAAUCCAGUGAUGUUGGUAUGCAGAUACCAGCGACGAAAGUCGCCCUUGGCAGCUGUGGACGUACAAAAUAAGUACGUCCU
Input ligand: FMN 200 uM
  apparent KD of K4 kissing-loop reporter: 923 nM
Input ligand: arginine 13.2 mM
  apparent KD of K4 kissing-loop reporter: 491 nM
Input ligand: none
  apparent KD of K4 kissing-loop reporter: 933 nM
[1]
  apparent KD of K4 kissing-loop reporter: 979 nM
[2]
  apparent KD of K4 kissing-loop reporter: 855 nM

## UGAUACCAGACGGCCGCCACUCCCGUAAGUCAAAGACUUACGAAGAGAGUUUUCCAGUGAUGUUGGAGGACCGGGUCUGGUAUCU [FiskerMod 15 - Jieux - Exclusion - Tryptophan B]
Input ligand: FMN 200 uM
  apparent KD of K4 kissing-loop reporter: 186 nM
Input ligand: arginine 13.2 mM
  apparent KD of K4 kissing-loop reporter: 168 nM
Input ligand: none
  apparent KD of K4 kissing-loop reporter: 175 nM
[1]
  apparent KD of K4 kissing-loop reporter: 174 nM
[2]
  apparent KD of K4 kissing-loop reporter: 232 nM

## UGUCAUUGGUCGGCCGCCACUAGGACCGGGUAUAACCUAGUGAUGUUAGUAAAUACGGCCGCCACUAGGACCGGGACCGAUGACU [KL-SSTryp-B18 #DoubleAptamer]
Input ligand: FMN 200 uM
  apparent KD of K4 kissing-loop reporter: 415 nM
Input ligand: arginine 13.2 mM
  apparent KD of K4 kissing-loop reporter: 296 nM
Input ligand: none
  apparent KD of K4 kissing-loop reporter: 583 nM
[1]
  apparent KD of K4 kissing-loop reporter: 471 nM
[2]
  apparent KD of K4 kissing-loop reporter: 102 nM

## AAUAAAAUCACGGCCGCCACUGAUACUAGUAUUAGCAGUGAUGUUGCUAUGUAUAAUUUAUUAAAUAGGACCGGGUGAAUAUUUA [#25 K4 Tryptophan B Exclusion]
Input ligand: FMN 200 uM
  apparent KD of K4 kissing-loop reporter: 298 nM
Input ligand: arginine 13.2 mM
  apparent KD of K4 kissing-loop reporter: 220 nM
Input ligand: none
  apparent KD of K4 kissing-loop reporter: 267 nM
[1]
  apparent KD of K4 kissing-loop reporter: 350 nM
[2]
  apparent KD of K4 kissing-loop reporter: 256 nM

## UGCAUGCGUAGAGUGAUGUUCUAAGAUGAUACCAGUGCGGAAACGCACCCUUGGCAGCAUCUGACUGCAUGCACGUCGAAAGACG
Input ligand: FMN 200 uM
  apparent KD of K4 kissing-loop reporter: 718 nM
Input ligand: arginine 13.2 mM
  apparent KD of K4 kissing-loop reporter: 666 nM
Input ligand: none
  apparent KD of K4 kissing-loop reporter: 826 nM
[1]
  apparent KD of K4 kissing-loop reporter: 399 nM
[2]
  apparent KD of K4 kissing-loop reporter: 598 nM

## UGAUGUUUAGGUCACCCAGUGAUGUUGGAAGGAGCGUGCGAAAGCACAGGUAGGUCGCCAAUCUCCUUGUGACCUGAGCAUCUAA [#SwitchBubble 14 #K4Early]
Input ligand: FMN 200 uM
  apparent KD of K4 kissing-loop reporter: 976 nM
Input ligand: arginine 13.2 mM
  apparent KD of K4 kissing-loop reporter: 787 nM
Input ligand: none
  apparent KD of K4 kissing-loop reporter: 1050 nM
[1]
  apparent KD of K4 kissing-loop reporter: 979 nM
[2]
  apparent KD of K4 kissing-loop reporter: 854 nM

## ACCAUCAAAGAUGGCCAGGACUCAACUGAUACCAGAGUGAAAACACUCCCUUGGCAGCAGGUGAGUGAUGUUCACGAGUCCUGGA [Omel KL Theo A SS B v7]
Input ligand: FMN 200 uM
  apparent KD of K4 kissing-loop reporter: 117 nM
Input ligand: arginine 13.2 mM
  apparent KD of K4 kissing-loop reporter: 82 nM
Input ligand: none
  apparent KD of K4 kissing-loop reporter: 215 nM
[1]
  apparent KD of K4 kissing-loop reporter: 168 nM
[2]
  apparent KD of K4 kissing-loop reporter: 147 nM

## UUAAUAAUUCAAGGAUAUGUUUUCUAUUUCGAGUGAUGUUCGGAAUUAAUAAAUUUAAAAGAUUAUACAGAAGGUGAUGGAUAGU [Cynwulf-mod#4]
Input ligand: FMN 200 uM
  apparent KD of K4 kissing-loop reporter: 114 nM
Input ligand: arginine 13.2 mM
  apparent KD of K4 kissing-loop reporter: 117 nM
Input ligand: none
  apparent KD of K4 kissing-loop reporter: 109 nM
[1]
  apparent KD of K4 kissing-loop reporter: 129 nM
[2]
  apparent KD of K4 kissing-loop reporter: 90.3 nM

## UUUAUAUAGUCGGCCGCCACUGAUUUUUUUAUAUGUUUAUGUUUAUACGAGUGAUGUUCGAUAUACAGGACCGGGACUUUUGUUA [JR_SSTryptoB_Sub018]
Input ligand: FMN 200 uM
  apparent KD of K4 kissing-loop reporter: 186 nM
Input ligand: arginine 13.2 mM
  apparent KD of K4 kissing-loop reporter: 237 nM
Input ligand: none
  apparent KD of K4 kissing-loop reporter: 238 nM
[1]
  apparent KD of K4 kissing-loop reporter: 294 nM
[2]
  apparent KD of K4 kissing-loop reporter: 180 nM

## UGACUGGACUGAAGGAGCGAGGACGGUCAUAGACCGAAUUCAGUGAUGUUGAAAAUAAAACCUCAGGUAGGUCGCAGUCUAGUCU [ArgBS 3 #SwitchBubble #StaticStem]
Input ligand: FMN 200 uM
  apparent KD of K4 kissing-loop reporter: 228 nM
Input ligand: arginine 13.2 mM
  apparent KD of K4 kissing-loop reporter: 193 nM
Input ligand: none
  apparent KD of K4 kissing-loop reporter: 219 nM
[1]
  apparent KD of K4 kissing-loop reporter: 216 nM
[2]
  apparent KD of K4 kissing-loop reporter: 204 nM

## ACCUACCAUUAGUGAUGUUAAUGGACGGAAGGAGCGCGGAUAUCCGCAGGUAGGUCGCCGAAGGCUAGACAUUGUCUAGCCAUUA [AK1.2 SS Arginine A]
Input ligand: FMN 200 uM
  apparent KD of K4 kissing-loop reporter: 225 nM
Input ligand: arginine 13.2 mM
  apparent KD of K4 kissing-loop reporter: 186 nM
Input ligand: none
  apparent KD of K4 kissing-loop reporter: 196 nM
[1]
  apparent KD of K4 kissing-loop reporter: 166 nM
[2]
  apparent KD of K4 kissing-loop reporter: 182 nM

## UGUAUGUGUCAGCGAGUGAUGUUCGACGAUACCAGACUCGAUAGAGUCCCUUGGCAGCGUAAUGCAUGCCAAACUGGCACAUACU [#SwitchBubble 13 #K4Early]
Input ligand: FMN 200 uM
  apparent KD of K4 kissing-loop reporter: 657 nM
Input ligand: arginine 13.2 mM
  apparent KD of K4 kissing-loop reporter: 532 nM
Input ligand: none
  apparent KD of K4 kissing-loop reporter: 682 nM
[1]
  apparent KD of K4 kissing-loop reporter: 594 nM
[2]
  apparent KD of K4 kissing-loop reporter: 600 nM

## AUGCGGUGGAGGCUACCGCUAUUCUGAGAAGGAGCGCAGAUGACUGCAGGUAGGUCGCUUAGAGCUUGCAGUGAUGUUGCAAGUU [Islatimaed]
Input ligand: FMN 200 uM
  apparent KD of K4 kissing-loop reporter: 200 nM
Input ligand: arginine 13.2 mM
  apparent KD of K4 kissing-loop reporter: 168 nM
Input ligand: none
  apparent KD of K4 kissing-loop reporter: 191 nM
[1]
  apparent KD of K4 kissing-loop reporter: 174 nM
[2]
  apparent KD of K4 kissing-loop reporter: 204 nM

## UGUCAUUGGUCGGCCGCCACUUCAUAAAGAGUGAUGUUCUGAAAGACGGAUCGAAAGAUCUGUCGAAGGACCGGGACCGAUGACU [FiskerMod 1 - Jieux - Same State - Tryptophan B]
Input ligand: FMN 200 uM
  apparent KD of K4 kissing-loop reporter: 1160 nM
Input ligand: arginine 13.2 mM
  apparent KD of K4 kissing-loop reporter: 1200 nM
Input ligand: none
  apparent KD of K4 kissing-loop reporter: 2080 nM
[1]
  apparent KD of K4 kissing-loop reporter: 1430 nM
[2]
  apparent KD of K4 kissing-loop reporter: 236 nM

## GAUGCAUAUUCCUGGAGGAAGAUGGUUAAGAAGGAUAUCAAAGCCGUGAGAAGGUCUAAACCUAAUAGUCGAGUGAUGUUCGACC [theeternabot_sameState_KL_FMN_A_35]
Input ligand: FMN 200 uM
  apparent KD of K4 kissing-loop reporter: 231 nM
Input ligand: arginine 13.2 mM
  apparent KD of K4 kissing-loop reporter: 309 nM
Input ligand: none
  apparent KD of K4 kissing-loop reporter: 356 nM
[1]
  apparent KD of K4 kissing-loop reporter: 428 nM
[2]
  apparent KD of K4 kissing-loop reporter: 278 nM

## AAUAAAAUCACGGCCGCCACUGGUACUAGUAUUAGCAGUGAUGUUGCUAUGUAUAAUUUAUUAAAUAGGACCGGGUGAAUAUUUA [#27 K4 Tryptophan B Exclusion]
Input ligand: FMN 200 uM
  apparent KD of K4 kissing-loop reporter: 326 nM
Input ligand: arginine 13.2 mM
  apparent KD of K4 kissing-loop reporter: 281 nM
Input ligand: none
  apparent KD of K4 kissing-loop reporter: 238 nM
[1]
  apparent KD of K4 kissing-loop reporter: 233 nM
[2]
  apparent KD of K4 kissing-loop reporter: 208 nM

## AUUUAAUGUAUAGAUUAUAUACAUAAUUCAGAGGAUAUGCAUAGAAGCAGAAGGCUGGUUGCAGUGAUGUUGCUUUUUUAAUUUA [JR_SSFMNA_Sub008]
Input ligand: FMN 200 uM
  apparent KD of K4 kissing-loop reporter: 30.9 nM
Input ligand: arginine 13.2 mM
  apparent KD of K4 kissing-loop reporter: 125 nM
Input ligand: none
  apparent KD of K4 kissing-loop reporter: 76.7 nM
[1]
  apparent KD of K4 kissing-loop reporter: 185 nM
[2]
  apparent KD of K4 kissing-loop reporter: 63.8 nM

Source: the supplement of paper PMC9170038
